In the supplement of paper PMC10724198:
± gives the standard deviation of the averaged measurements.

How the values were obtained:
Saccharomyces cerevisiae [1] = assay: protein stability index of tFT-peptide fusion (C-terminal peptide) (PSI (0-1 scale)); higher = more stable (slower turnover); details: genetic background: wild type; temperature: 30 C
Saccharomyces cerevisiae [2] = assay: as above
Method: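 MPS profiling in S. cerevisiae of the tFT-X12 degron library: putative degron peptides plus stable controls, 12 aa, fused to the C-terminus of a sfGFP-mCherry timer. Cells are FACS-sorted into 8 mCherry/sfGFP bins and deep-sequenced. PSI runs from 0 (unstable) to 1 (stable). Backgrounds are wild type, das1Δ and doa10Δ at 30 °C, and wild type, das1Δ, cdc34-1 and cdc53-1 at 37 °C; 2-3 technical replicates each.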

[3] = genetic background: cdc34-1, temperature: 37 C
[4] = genetic background: cdc53-1, temperature: 37 C
[5] = genetic background: das1 deletion, temperature: 30 C
[6] = genetic background: das1 deletion, temperature: 37 C
[7] = genetic background: doa10 deletion, temperature: 30 C
[8] = genetic background: wild type, temperature: 30 C
[9] = genetic background: wild type, temperature: 37 C
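Further: PSI is a weighted mean of sequencing reads over stability bins, variants kept only with over 10 reads, mCherry proximal and sfGFP distal, peptide attached via GGGS linker.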

Sequence	protein stability index (Saccharomyces cerevisiae [1])	protein stability index (Saccharomyces cerevisiae [2]; [3])	protein stability index (Saccharomyces cerevisiae [2]; [4])	protein stability index (Saccharomyces cerevisiae [2]; [5])	protein stability index (Saccharomyces cerevisiae [2]; [6])	protein stability index (Saccharomyces cerevisiae [2]; [7])	protein stability index (Saccharomyces cerevisiae [2]; [8])	protein stability index (Saccharomyces cerevisiae [2]; [9])
CLGLFPSLLRLS	0.325 ± 0.032	0.666 ± 0.031	0.737 ± 0.021	0.644 ± 0.02	0.731 ± 0.0092	0.285 ± 0.026	0.291 ± 0.033	0.535 ± 0.009
TGVPNPSVAVMC	0.498 ± 0.098	0.639 ± 0.039	0.623 ± 0.023	0.457 ± 0.025	0.6489 ± 0.005	0.446 ± 0.019	0.475 ± 0.028	0.625 ± 0.0069
FILCGFSVVLIG	0.255 ± 0.12	0.153 ± 0.033	0.245 ± 0.0032	0.191 ± 0.036	0.395 ± 0.016	0.162 ± 0.019	0.184 ± 0.048	0.372 ± 0.014
SRSFWHAIVFLA	0.122 ± 0.085	0.373 ± 0.043	0.589 ± 0.015	0.542 ± 0.026	0.649 ± 0.0067	0.0822 ± 0.036	0.0959 ± 0.028	0.0963 ± 0.018
RWRYHAYVITIL	0.138 ± 0.045	0.334 ± 0.02	0.4158 ± 0.0037	0.392 ± 0.02	0.506 ± 0.0054	0.118 ± 0.0098	0.0812 ± 0.025	0.0987 ± 0.0088
TTGLLPSAYIWS	0.762 ± 0.011	0.758 ± 0.05	0.753 ± 0.024	0.6494 ± 0.0043	0.768 ± 0.033	0.677 ± 0.0094	0.667 ± 0.028	0.716 ± 0.04
PPPPPPPSSSSL	0.388 ± 0.0099	0.667 ± 0.041	0.735 ± 0.027	0.672 ± 0.017	0.722 ± 0.011	0.674 ± 0.013	0.696 ± 0.037	0.727 ± 0.03
VSLIFCLFFLSC	0.442 ± 0.013	0.424 ± 0.0047	0.502 ± 0.044	0.402 ± 0.018	0.52 ± 0.0063	0.395 ± 0.024	0.404 ± 0.027	0.492 ± 0.027
LSFYLRAVRASL	0.522 ± 0.035	0.777 ± 0.092	0.782 ± 0.009	0.629 ± 0.015	0.7101 ± 0.0032	0.562 ± 0.037	0.565 ± 0.027	0.673 ± 0.015
ILAVMFEIYAIL	0.3593 ± 0.0012	0.422 ± 0.013	0.5124 ± 0.0015	0.349 ± 0.042	0.533 ± 0.0094	0.185 ± 0.018	0.228 ± 0.029	0.42 ± 0.023
LVLALTPFLHSF	0.399 ± 0.0069	0.639 ± 0.01	0.701 ± 0.017	0.638 ± 0.021	0.727 ± 0.012	0.239 ± 0.0075	0.284 ± 0.018	0.551 ± 0.0073
VLCMSIFIVFGI	0.371 ± 0.052	0.197 ± 0.031	0.287 ± 0.023	0.195 ± 0.024	0.352 ± 0.019	0.1774 ± 0.0013	0.196 ± 0.011	0.303 ± 0.011
CPALTFCLLLSS	0.457 ± 0.0097	0.539 ± 0.051	0.567 ± 0.0093	0.417 ± 0.029	0.5866 ± 0.0054	0.427 ± 0.015	0.383 ± 0.019	0.557 ± 0.01
PPVAYVCHLYVT	0.428 ± 0.0053	0.589 ± 0.058	0.614 ± 0.029	0.5 ± 0.017	0.6058 ± 0.0045	0.309 ± 0.031	0.335 ± 0.028	0.503 ± 0.013
VVLVVVWWGGVE	0.3931 ± 0.00072	0.242 ± 0.051	0.421 ± 0.074	0.249 ± 0.034	0.4872 ± 0.0025	0.21 ± 0.003	0.258 ± 0.029	0.403 ± 0.036
VGTGVGEGGGVV	0.711 ± 0.011	0.679 ± 0.029	0.72922 ± 0.00013	0.645 ± 0.016	0.73 ± 0.011	0.654 ± 0.018	0.649 ± 0.013	0.719 ± 0.022
VRLLLIFRLLVI	0.299 ± 0.09	0.463 ± 0.0077	0.539 ± 0.013	0.417 ± 0.039	0.551 ± 0.0066	0.2909 ± 0.0022	0.267 ± 0.038	0.447 ± 0.02
VFLFSWYIFSVF	0.184 ± 0.015	0.206 ± 0.0065	0.341 ± 0.071	0.234 ± 0.031	0.42493 ± 0.00033	0.1066 ± 0.00012	0.109 ± 0.03	0.169 ± 0.0034
VSFEFSVLWTVF	0.46 ± 0.018	0.548 ± 0.073	0.592 ± 0.028	0.515 ± 0.022	0.574 ± 0.029	0.384 ± 0.016	0.383 ± 0.017	0.469 ± 0.005
